Reference: the RNAGym collection of RNA variant scans (doi:10.7554/elife.90254)

B1: OR4K15 (parent)
chain: GUUAACGGUCAUAGGCCAUGGAAACUAGGAGCACCAUUUCGCUGCCAGUGAAGAAAUGAACAAAGAAAAUCUGGGCCAGGCAGGCAUCAAAAGAAAUAGUCUUGCGCUCAACCAGAAAGUCUGUAAUCAUUUUAAGGGUA

Variants of: B1
Assay: self-cleavage, relative activity (ratio to wild type); higher = more cleavage; in vitro, sequencing; the parent is a self-cleaving ribozyme

Going from GUUAACGGUCAUAGGCCAUGGAAACUAGGAGCACCAUUUCGCUGCCAGUGAAGAAAUGAACAAAGAAAAUCAGGGCCAGGCAGGCAUCAAAAGAGAUAGUCUUGCGCUCAACCAGAAAGUCUGUAAUCAUUUUAAGGGUA [U72A A95G] to GUUAACGGUCAUAGGCCAUGGAAACUAGGAGCACCAUUUCGCUGCCAGUGAAGAAAUGAACAAAGAAAAUCAGGGCCAGGCAGGCAUCAAAAGAAAUAGUCUUGCGCUCAACCAGAAAGUCUGUAAUCAUUUUAUGGGUA [U72A A135U], the self-cleavage falls from 0.36 to 0.14.

Compared with GUUAACGGUCAUAGGCCAUGGAAACUAGGAGCACCAUUUCGCUGCCAGUGAAGAAAUGAACAAAGAAAAUCAGGGCCAGGCAGGCAUCAAAAGAAAUAGUCUUGCGCUCAACCAGAAAGUCUGUAAUCAUUUUAGGGGUA [U72A A135G], GUUAACGGUCAUAGGCCAUGGAAACUAGGAGCACCAUUUCGCUGCCAGUGAAGAAAUGAACAAAGAAAAUCAGGGCCAGGCAGGCAUCAAAAGAAAUAGUAUUGCGCUCAACCAGAAAGUCUGUAAUCAUUUUAAGGGUA [U72A C101A] is lower in self-cleavage: 0.21 for the first, 0.04 for the second.

Compared with GUUAACGGUCAUAGGCCAUGGAAACUAGGAGCACCAUUUCGCUGCCAGUGAAGAAAUGAACAAAGAAAAUCAGGGCCAGGCUGGCAUCAAAAGAAAUAGUCUUGCGCUCAACCAGAAAGUCUGUAAUCAUUUUAAGGGUA [U72A A82U], GUUAACGGUCAUAGGCCAUGGAAACUAGGAGCACCAUUUCGCUGCCAGUGAAGAAAUGAACAAAGAAAAUCAGGGCCAGGCAGGCAACAAAAGAAAUAGUCUUGCGCUCAACCAGAAAGUCUGUAAUCAUUUUAAGGGUA [U72A U87A] is higher in self-cleavage: 0.15 for the first, 0.37 for the second.

Going from GUUAACGGUCAUAGGCCAUGGAAACUAGGAGCACCAUUUCGCUGCCAGUGAAGAAAUGAACAAAGAAAAUCAGGGCCAGGCAGGCACCAAAAGAAAUAGUCUUGCGCUCAACCAGAAAGUCUGUAAUCAUUUUAAGGGUA [U72A U87C] to GUUAACGGUCAUAGGCCAUGGAAACUAGGAGCACCAUUUCGCUGCCAGUGAAGAAAUGAACAAAGAAAAUCAGGGCCAGGCAGGCAUCAAAAGAAAUAGUCUUGCGCUCAACCAGAAAGUCUGUAGUCAUUUUAAGGGUA [U72A A126G], the self-cleavage falls from 0.19 to 0.16.

Going from GUUAACGGUCAUAGGCCAUGGAAACUAGGAGCACCAUUUCGCUGCCAGUGAAGAAAUGAACAAAGAAAAUCAGGGCCAGGCAGGCAUCAAAAGAAAUAGUCUUGCGCUCAACCAGAAAGUCUGUAUUCAUUUUAAGGGUA [U72A A126U] to GUUAACGGUCAUAGGCCAUGGAAACUAGGAGCACCAUUUCGCUGCCAGUGAAGAAAUGAACAAAGAAAAUUUGGGCCAGGCAGGCAUCAAAAGAAAUAGUCUUGCGCUCAACCAGAAAGUCUGUAGUCAUUUUAAGGGUA [C71U A126G], the self-cleavage falls from 0.37 to 0.32.

Going from GUUAACGGUCAUAGGCCAUGGAAACUAGGAGCACCAUUUCGCUGCCAGUGAAGAAAUGAACAAAGAAAAUUUGGGCCAGGCAGGCAUCAAAAGAAAUAGUCUUGCGCUCAACCAGAAAGUCUGUAAUCACUUUAAGGGUA [C71U U130C] to GUUAACGGUCAUAGGCCAUGGAAACUAGGAGCACCAUUUCGCUGCCAGUGAAGAAAUGAACAAAGAAAAUCAGGGUCAGGCAGGCAUCAAAAGAAAUAGUCUUGCGCUCAACCAGAAAGUCUGUAAUCAUUUUAAGGGUA [U72A C76U], the self-cleavage rises from 0.13 to 0.28.

Compared with GUUAACGGUCAUAGGCCAUGGAAACUAGGAGCACCAUUUCGCUGCCAGUGAAGAAAUGAACAAAGAAAAUCAGGGCCAGGCAGGCAUCAAAAGAAAUAGUCUUGCGCUCCACCAGAAAGUCUGUAAUCAUUUUAAGGGUA [U72A A110C], GUUAACGGUCAUAGGCCAUGGAAACUAGGAGCACCAUUUCGCUGCCAGUGAAGAAAUGAACAAAGAAAAUCAGGGCCAGGCAGGCAUCAAAAGAAAUUGUCUUGCGCUCAACCAGAAAGUCUGUAAUCAUUUUAAGGGUA [U72A A98U] is higher in self-cleavage: 0.06 for the first, 0.33 for the second.

First: GUUAACGGUCAUAGGCCAUGGAAACUAGGAGCACCAUUUCGCUGCCAGUGAAGAAAUGAACAAAGAAAAUCAGGGCCAGGCAGGCAUCAAAAGUAAUAGUCUUGCGCUCAACCAGAAAGUCUGUAAUCAUUUUAAGGGUA [U72A A94U]
Second: GUUAACGGUCAUAGGCCAUGGAAACUAGGAGCACCAUUUCGCUGCCAGUGAAGAAAUGAACAAAGAAAAUCAGGGCCAGGCAGGCAUCAAAAGAAAUAGUCUUGCGCUCAUCCAGAAAGUCUGUAAUCAUUUUAAGGGUA [U72A A111U]
The self-cleavage of the first is higher: 0.37 for the first, 0.01 for the second.

First: GUUAACGGUCAUAGGCCAUGGAAACUAGGAGCACCAUUUCGCUGCCAGUGAAGAAAUGAACAAAGAAAAUUUGGGCCAGGCAGGCAUCAAAAGAAAUAGUCUUGCGCUCAACCAGAAAGUCUGCAAUCAUUUUAAGGGUA [C71U U124C]
Second: GUUAACGGUCAUAGGCCAUGGAAACUAGGAGCACCAUUUCGCUGCCAGUGAAGAAAUGAACAAAGAAAAUUUGGGCCAGGCAGGCAUCAAAGGAAAUAGUCUUGCGCUCAACCAGAAAGUCUGUAAUCAUUUUAAGGGUA [C71U A92G]
The self-cleavage of the first is lower: 0.06 for the first, 0.52 for the second.

Going from GUUAACGGUCAUAGGCCAUGGAAACUAGGAGCACCAUUUCGCUGCCAGUGAAGAAAUGAACAAAGAAAAUCAGGGCCAGGCAGGCAUCAAAAGAAAUAGUCCUGCGCUCAACCAGAAAGUCUGUAAUCAUUUUAAGGGUA [U72A U102C] to GUUAACGGUCAUAGGCCAUGGAAACUAGGAGCACCAUUUCGCUGCCAGUGAAGAAAUGAACAAAGAAAAUUUGGGCCAGGCAGGCAUCAAAAGAAAUAGUCUUGCGCUCAACCAGAAAGUCUGUAAUCAUUUUACGGGUA [C71U A135C], the self-cleavage falls from 0.58 to 0.42.

Going from GUUAACGGUCAUAGGCCAUGGAAACUAGGAGCACCAUUUCGCUGCCAGUGAAGAAAUGAACAAAGAAAAUCAGGGCCAGGCAGGUAUCAAAAGAAAUAGUCUUGCGCUCAACCAGAAAGUCUGUAAUCAUUUUAAGGGUA [U72A C85U] to GUUAACGGUCAUAGGCCAUGGAAACUAGGAGCACCAUUUCGCUGCCAGUGAAGAAAUGAACAAAGAAAAUUUGGGCCAGGCAGGCAUCAAAAGAAAUAGUCUUGCGCUCAACCAGAAAGUCUGUAAUCAUUCUAAGGGUA [C71U U132C], the self-cleavage falls from 0.36 to 0.25.

First: GUUAACGGUCAUAGGCCAUGGAAACUAGGAGCACCAUUUCGCUGCCAGUGAAGAAAUGAACAAAGAAAAUCAGGGCCAGGCAGGCAUCAAAAGAAAUAGUCUUGCGCUCAACCAGAAAGUCUGUAAUCAUUUUAAGGGUG [U72A A140G]
Second: GUUAACGGUCAUAGGCCAUGGAAACUAGGAGCACCAUUUCGCUGCCAGUGAAGAAAUGAACAAAGAAAAUCAGGGCCAGGCAGGCAUCAAAAGAAAUAGUCUUGCGCUCAACCAGAGAGUCUGUAAUCAUUUUAAGGGUA [U72A A117G]
The self-cleavage of the first is higher: 0.32 for the first, 0.16 for the second.

First: GUUAACGGUCAUAGGCCAUGGAAACUAGGAGCACCAUUUCGCUGCCAGUGAAGAAAUGAACAAAGAAAAUCAGGGCCAGGCAGGCAUCAAAAGAAAUAGUCUUGCGCUCAACCAGAAAAUCUGUAAUCAUUUUAAGGGUA [U72A G119A]
Second: GUUAACGGUCAUAGGCCAUGGAAACUAGGAGCACCAUUUCGCUGCCAGUGAAGAAAUGAACAAAGAAAAUUAGGGCCAGGCAGGCAUCAAAAGAAAUAGUCUUGCGCUCAACCAGAAAGUCUGUAAUCAUUUUAAGGGUA [C71U U72A]
The self-cleavage of the first is higher: 0.47 for the first, 0.19 for the second.

Compared with GUUAACGGUCAUAGGCCAUGGAAACUAGGAGCACCAUUUCGCUGCCAGUGAAGAAAUGAACAAAGAAAAUCAGGGCCAGGCAGGCAUCAAAAGAAAUAGUCUUGCGCUCAACCAGAAAGUCUGUAAUCAUUUUAAGGGUA [U72A], GUUAACGGUCAUAGGCCAUGGAAACUAGGAGCACCAUUUCGCUGCCAGUGAAGAAAUGAACAAAGAAAAUCAGGGCCAGGCAGGCAUCAAAUGAAAUAGUCUUGCGCUCAACCAGAAAGUCUGUAAUCAUUUUAAGGGUA [U72A A92U] is lower in self-cleavage: 0.18 for the first, 0.13 for the second.

First: GUUAACGGUCAUAGGCCAUGGAAACUAGGAGCACCAUUUCGCUGCCAGUGAAGAAAUGAACAAAGAAAAUCAGGGCCAGGCAGGCUUCAAAAGAAAUAGUCUUGCGCUCAACCAGAAAGUCUGUAAUCAUUUUAAGGGUA [U72A A86U]
Second: GUUAACGGUCAUAGGCCAUGGAAACUAGGAGCACCAUUUCGCUGCCAGUGAAGAAAUGAACAAAGAAAAUCAGGGCCAGGCAGGCGUCAAAAGAAAUAGUCUUGCGCUCAACCAGAAAGUCUGUAAUCAUUUUAAGGGUA [U72A A86G]
The self-cleavage of the first is higher: 0.32 for the first, 0.17 for the second.

Compared with GUUAACGGUCAUAGGCCAUGGAAACUAGGAGCACCAUUUCGCUGCCAGUGAAGAAAUGAACAAAGAAAAUCAGGGCCAGGCAGGCAUCAAUAGAAAUAGUCUUGCGCUCAACCAGAAAGUCUGUAAUCAUUUUAAGGGUA [U72A A91U], GUUAACGGUCAUAGGCCAUGGAAACUAGGAGCACCAUUUCGCUGCCAGUGAAGAAAUGAACAAAGAAAAUCAGGGCCAGGCAGGCAUCAAGAGAAAUAGUCUUGCGCUCAACCAGAAAGUCUGUAAUCAUUUUAAGGGUA [U72A A91G] is lower in self-cleavage: 0.24 for the first, 0.19 for the second.

Going from GUUAACGGUCAUAGGCCAUGGAAACUAGGAGCACCAUUUCGCUGCCAGUGAAGAAAUGAACAAAGAAAAUCAGGGCCAGGCAGGCAUCAAAAGAAAUAGGCUUGCGCUCAACCAGAAAGUCUGUAAUCAUUUUAAGGGUA [U72A U100G] to GUUAACGGUCAUAGGCCAUGGAAACUAGGAGCACCAUUUCGCUGCCAGUGAAGAAAUGAACAAAGAAAAUCAGGGCCAGGCAGGCAUCAAAAGAAAUAGCCUUGCGCUCAACCAGAAAGUCUGUAAUCAUUUUAAGGGUA [U72A U100C], the self-cleavage rises from 0.19 to 0.4.

Going from GUUAACGGUCAUAGGCCAUGGAAACUAGGAGCACCAUUUCGCUGCCAGUGAAGAAAUGAACAAAGAAAAUCAGGGCCUGGCAGGCAUCAAAAGAAAUAGUCUUGCGCUCAACCAGAAAGUCUGUAAUCAUUUUAAGGGUA [U72A A78U] to GUUAACGGUCAUAGGCCAUGGAAACUAGGAGCACCAUUUCGCUGCCAGUGAAGAAAUGAACAAAGAAAAUGUGGGCCAGGCAGGCAACAAAAGAAAUAGUCUUGCGCUCAACCAGAAAGUCUGUAAUCAUUUUAAGGGUA [C71G U87A], the self-cleavage rises from 0.15 to 0.21.

Going from GUUAACGGUCAUAGGCCAUGGAAACUAGGAGCACCAUUUCGCUGCCAGUGAAGAAAUGAACAAAGAAAAUUUGGGCCAGGCAGGCAUCAAAAGAUAUAGUCUUGCGCUCAACCAGAAAGUCUGUAAUCAUUUUAAGGGUA [C71U A95U] to GUUAACGGUCAUAGGCCAUGGAAACUAGGAGCACCAUUUCGCUGCCAGUGAAGAAAUGAACAAAGAAAAUUUGGGCCAGGCAGGCAUCAAAAGAGAUAGUCUUGCGCUCAACCAGAAAGUCUGUAAUCAUUUUAAGGGUA [C71U A95G], the self-cleavage rises from 0.5 to 0.97.

Compared with GUUAACGGUCAUAGGCCAUGGAAACUAGGAGCACCAUUUCGCUGCCAGUGAAGAAAUGAACAAAGAAAAUCAGGGCCAGGCAGGCAUCAAAAGAAAUAGUCUUGCGCUCAACCGGAAAGUCUGUAAUCAUUUUAAGGGUA [U72A A114G], GUUAACGGUCAUAGGCCAUGGAAACUAGGAGCACCAUUUCGCUGCCAGUGAAGAAAUGAACAAAGAAAAUCAGGGCCAGGCAGGCAUCAGAAGAAAUAGUCUUGCGCUCAACCAGAAAGUCUGUAAUCAUUUUAAGGGUA [U72A A90G] is higher in self-cleavage: 0.11 for the first, 0.18 for the second.

GUUAACGGUCAUAGGCCAUGGAAACUAGGAGCACCAUUUCGCUGCCAGUGAAGAAAUGAACAAAGAAAAUCAGGGCCAGGCAGGCAUCAAAAGAAAUAGUCUUGCGCUCAACCAGAAAGUCUGUAAUUAUUUUAAGGGUA [U72A C128U] showed a self-cleavage of 0.15.
